Key:
SHP2-C SH2 = assay: SH2 binding enrichment of the phosphorylated peptide, bacterial display (enrichment ratio); higher = better substrate or ligand; peptides without Tyr show the background
c-Src SH2 = assay: as above
Grb2 SH2 = Grb2 SH2 (UniProt P62993); assay: as above
c-Abl (mouse) = assay: phosphorylation enrichment, bacterial display (enrichment ratio); higher = better substrate or ligand; peptides without Tyr show the background
EPHB1 = EPHB1 (UniProt P54762); assay: as above
AncSZ = assay: as above
Jak2 = Jak2 (UniProt O60674); assay: as above
Hck = Hck (UniProt P08631); assay: as above
Sequence of Hck (P08631 whole entry, looked up): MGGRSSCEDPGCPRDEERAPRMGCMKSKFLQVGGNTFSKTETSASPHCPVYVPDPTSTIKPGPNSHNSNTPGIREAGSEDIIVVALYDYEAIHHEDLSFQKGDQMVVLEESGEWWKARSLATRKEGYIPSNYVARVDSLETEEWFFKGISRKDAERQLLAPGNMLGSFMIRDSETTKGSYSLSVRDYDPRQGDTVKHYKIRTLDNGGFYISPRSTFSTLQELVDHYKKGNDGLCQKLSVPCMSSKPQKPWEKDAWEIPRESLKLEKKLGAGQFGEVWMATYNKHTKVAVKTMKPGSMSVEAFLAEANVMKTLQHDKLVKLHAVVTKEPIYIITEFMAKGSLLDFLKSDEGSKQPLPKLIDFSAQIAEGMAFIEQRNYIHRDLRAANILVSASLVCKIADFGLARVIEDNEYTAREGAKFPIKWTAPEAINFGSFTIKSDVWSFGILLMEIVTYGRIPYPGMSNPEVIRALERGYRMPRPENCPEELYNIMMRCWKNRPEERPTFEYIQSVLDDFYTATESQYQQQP

FGFR3 = FGFR3 (UniProt P22607); assay: as above
MERTK = MERTK (UniProt Q12866); assay: as above
Sequence of MERTK (Q12866 whole entry, looked up): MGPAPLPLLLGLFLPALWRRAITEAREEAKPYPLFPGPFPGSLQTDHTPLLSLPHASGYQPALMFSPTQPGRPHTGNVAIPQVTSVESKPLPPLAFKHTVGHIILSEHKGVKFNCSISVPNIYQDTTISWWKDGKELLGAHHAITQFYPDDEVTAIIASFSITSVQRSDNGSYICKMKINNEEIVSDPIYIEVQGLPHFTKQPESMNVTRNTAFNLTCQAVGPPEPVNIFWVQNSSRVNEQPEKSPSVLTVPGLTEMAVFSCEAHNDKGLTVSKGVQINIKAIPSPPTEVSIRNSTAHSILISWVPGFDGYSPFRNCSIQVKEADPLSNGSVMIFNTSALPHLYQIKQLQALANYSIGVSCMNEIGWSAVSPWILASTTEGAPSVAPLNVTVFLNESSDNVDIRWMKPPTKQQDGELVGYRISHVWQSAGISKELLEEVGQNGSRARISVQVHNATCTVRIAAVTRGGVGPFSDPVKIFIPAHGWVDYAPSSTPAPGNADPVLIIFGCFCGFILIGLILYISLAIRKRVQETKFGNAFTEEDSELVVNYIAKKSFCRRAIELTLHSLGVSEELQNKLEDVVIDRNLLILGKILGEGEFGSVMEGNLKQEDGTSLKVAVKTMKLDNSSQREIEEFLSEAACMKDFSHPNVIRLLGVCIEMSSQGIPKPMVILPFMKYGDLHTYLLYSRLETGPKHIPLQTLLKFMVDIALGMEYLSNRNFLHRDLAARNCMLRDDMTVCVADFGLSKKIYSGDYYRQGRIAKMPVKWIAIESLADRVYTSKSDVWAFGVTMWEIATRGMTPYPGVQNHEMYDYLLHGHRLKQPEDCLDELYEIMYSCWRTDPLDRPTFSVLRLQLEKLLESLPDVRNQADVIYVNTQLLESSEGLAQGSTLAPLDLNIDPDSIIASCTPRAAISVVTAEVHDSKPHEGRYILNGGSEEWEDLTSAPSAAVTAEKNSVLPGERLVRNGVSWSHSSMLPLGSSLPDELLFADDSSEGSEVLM

Fer (mouse) = assay: as above
c-Src = assay: as above
EPHB2 = EPHB2 (UniProt P29323); assay: as above
FGFR1 = FGFR1 (UniProt P11362); assay: as above
Sequence of FGFR1 (P11362 whole entry, looked up): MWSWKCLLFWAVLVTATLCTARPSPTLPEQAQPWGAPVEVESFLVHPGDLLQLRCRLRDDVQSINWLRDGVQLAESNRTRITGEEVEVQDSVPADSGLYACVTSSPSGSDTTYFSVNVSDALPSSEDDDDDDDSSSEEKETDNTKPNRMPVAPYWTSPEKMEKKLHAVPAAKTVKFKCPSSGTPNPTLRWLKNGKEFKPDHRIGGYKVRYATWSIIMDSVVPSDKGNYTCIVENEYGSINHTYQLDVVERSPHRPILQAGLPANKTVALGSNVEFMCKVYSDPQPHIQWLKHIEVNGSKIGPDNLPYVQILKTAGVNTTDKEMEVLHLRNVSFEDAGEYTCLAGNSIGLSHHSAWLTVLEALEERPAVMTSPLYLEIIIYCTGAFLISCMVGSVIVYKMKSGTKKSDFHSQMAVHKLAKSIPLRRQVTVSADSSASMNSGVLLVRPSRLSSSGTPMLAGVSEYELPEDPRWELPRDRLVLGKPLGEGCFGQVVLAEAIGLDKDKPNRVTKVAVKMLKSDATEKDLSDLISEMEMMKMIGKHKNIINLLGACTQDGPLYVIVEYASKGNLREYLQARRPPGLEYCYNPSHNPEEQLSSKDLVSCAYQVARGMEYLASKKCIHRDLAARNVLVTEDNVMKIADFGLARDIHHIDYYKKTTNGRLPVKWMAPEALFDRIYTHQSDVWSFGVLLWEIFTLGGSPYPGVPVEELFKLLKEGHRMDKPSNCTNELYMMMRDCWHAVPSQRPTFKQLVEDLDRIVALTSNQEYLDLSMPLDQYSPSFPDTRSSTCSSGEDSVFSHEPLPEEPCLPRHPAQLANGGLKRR

Fes = Fes (UniProt P07332); assay: as above
Sequence of Fes (P07332 whole entry, looked up): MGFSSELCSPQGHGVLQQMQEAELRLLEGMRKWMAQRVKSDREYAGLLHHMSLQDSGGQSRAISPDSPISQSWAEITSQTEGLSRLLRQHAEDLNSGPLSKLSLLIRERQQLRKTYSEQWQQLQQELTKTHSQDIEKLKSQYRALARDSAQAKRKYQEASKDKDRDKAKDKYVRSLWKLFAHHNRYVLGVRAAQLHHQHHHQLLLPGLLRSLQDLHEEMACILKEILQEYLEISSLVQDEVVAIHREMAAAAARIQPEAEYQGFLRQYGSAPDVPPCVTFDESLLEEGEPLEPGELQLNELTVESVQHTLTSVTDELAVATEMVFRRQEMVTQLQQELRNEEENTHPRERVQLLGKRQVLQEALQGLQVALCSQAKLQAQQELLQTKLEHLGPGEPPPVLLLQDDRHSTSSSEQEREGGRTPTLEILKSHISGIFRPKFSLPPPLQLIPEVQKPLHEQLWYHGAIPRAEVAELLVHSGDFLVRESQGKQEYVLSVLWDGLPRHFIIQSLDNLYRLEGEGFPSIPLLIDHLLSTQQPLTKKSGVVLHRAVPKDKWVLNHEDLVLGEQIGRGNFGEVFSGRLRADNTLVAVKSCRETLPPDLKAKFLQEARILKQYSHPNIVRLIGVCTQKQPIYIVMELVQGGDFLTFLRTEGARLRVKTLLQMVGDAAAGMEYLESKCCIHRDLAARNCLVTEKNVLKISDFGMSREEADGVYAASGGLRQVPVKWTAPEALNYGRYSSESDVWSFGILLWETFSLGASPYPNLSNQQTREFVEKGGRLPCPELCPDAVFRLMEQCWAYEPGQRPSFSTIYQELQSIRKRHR

Fyn = Fyn (UniProt P06241); assay: as above
Sequence of Fyn (P06241 whole entry, looked up, the tested form may be a part): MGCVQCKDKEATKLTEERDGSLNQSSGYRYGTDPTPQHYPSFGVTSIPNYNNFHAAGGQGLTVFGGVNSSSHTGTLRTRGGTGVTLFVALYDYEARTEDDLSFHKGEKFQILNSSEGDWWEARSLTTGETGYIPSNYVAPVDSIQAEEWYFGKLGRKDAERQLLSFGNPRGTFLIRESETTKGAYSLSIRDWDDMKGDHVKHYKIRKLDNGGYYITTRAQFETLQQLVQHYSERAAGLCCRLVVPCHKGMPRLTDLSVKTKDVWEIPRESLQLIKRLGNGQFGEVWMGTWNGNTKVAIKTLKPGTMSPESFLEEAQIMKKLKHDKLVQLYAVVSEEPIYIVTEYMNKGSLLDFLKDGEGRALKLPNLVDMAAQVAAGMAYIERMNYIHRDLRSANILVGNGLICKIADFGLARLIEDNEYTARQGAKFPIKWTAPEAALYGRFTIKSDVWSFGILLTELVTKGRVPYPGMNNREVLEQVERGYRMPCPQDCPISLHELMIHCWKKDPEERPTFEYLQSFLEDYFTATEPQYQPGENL
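For SH2 binding enrichment of the phosphorylated peptide, bacterial display in this document: peptide library displayed on the E. coli surface as eCPX fusions, selected cells deep-sequenced, score is each peptide's frequency after selection divided by its frequency in the input.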
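For phosphorylation enrichment, bacterial display in this document: 11-residue human phosphosite peptides and single-mutation variants displayed on the E. coli surface, counted by deep sequencing, each peptide's frequency after selection divided by its frequency in the unselected input library; frequency after pTyr selection over input frequency; kinase dosed for 20-30% of maximal phosphorylation in three min.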

Sequence of EPHB1 (P54762 whole entry, looked up): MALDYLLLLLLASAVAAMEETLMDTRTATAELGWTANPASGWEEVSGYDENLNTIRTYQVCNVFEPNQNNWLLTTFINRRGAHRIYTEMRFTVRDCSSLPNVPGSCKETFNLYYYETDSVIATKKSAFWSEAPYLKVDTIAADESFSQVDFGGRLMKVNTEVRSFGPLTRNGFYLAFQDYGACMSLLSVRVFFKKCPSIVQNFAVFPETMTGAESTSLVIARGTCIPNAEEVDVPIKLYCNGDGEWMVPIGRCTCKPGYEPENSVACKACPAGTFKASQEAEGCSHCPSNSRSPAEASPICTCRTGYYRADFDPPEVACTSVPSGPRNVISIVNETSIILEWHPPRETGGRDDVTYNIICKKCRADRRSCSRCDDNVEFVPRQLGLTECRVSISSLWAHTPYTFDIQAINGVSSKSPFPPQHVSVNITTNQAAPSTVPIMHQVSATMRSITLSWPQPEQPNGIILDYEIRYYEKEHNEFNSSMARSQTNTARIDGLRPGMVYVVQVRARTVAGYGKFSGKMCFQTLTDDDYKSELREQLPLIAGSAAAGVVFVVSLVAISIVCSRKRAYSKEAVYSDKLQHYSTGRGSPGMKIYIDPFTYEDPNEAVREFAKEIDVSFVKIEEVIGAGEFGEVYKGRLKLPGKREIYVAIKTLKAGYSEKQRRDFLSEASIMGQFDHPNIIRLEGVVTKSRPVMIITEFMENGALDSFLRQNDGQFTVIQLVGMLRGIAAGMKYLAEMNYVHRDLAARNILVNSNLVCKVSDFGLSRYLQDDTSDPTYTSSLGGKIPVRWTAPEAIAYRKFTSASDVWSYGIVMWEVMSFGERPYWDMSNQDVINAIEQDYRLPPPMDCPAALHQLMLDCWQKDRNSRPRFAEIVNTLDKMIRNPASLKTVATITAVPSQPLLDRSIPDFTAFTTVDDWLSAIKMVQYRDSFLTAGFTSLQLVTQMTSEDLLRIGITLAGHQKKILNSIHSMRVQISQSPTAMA
Sequence of Grb2 SH2 (P62993 whole entry, looked up): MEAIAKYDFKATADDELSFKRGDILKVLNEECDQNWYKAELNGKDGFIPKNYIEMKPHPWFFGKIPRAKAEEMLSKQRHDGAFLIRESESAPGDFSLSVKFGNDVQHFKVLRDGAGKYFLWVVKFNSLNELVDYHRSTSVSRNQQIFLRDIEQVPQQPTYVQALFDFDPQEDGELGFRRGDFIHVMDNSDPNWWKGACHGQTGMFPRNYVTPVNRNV

Sequence	SH2 binding enrichment (SHP2-C SH2)	SH2 binding enrichment (c-Src SH2)	SH2 binding enrichment (Grb2 SH2)	phosphorylation enrichment (c-Abl (mouse))	phosphorylation enrichment (EPHB1)	phosphorylation enrichment (AncSZ)	phosphorylation enrichment (Jak2)	phosphorylation enrichment (Hck)	phosphorylation enrichment (FGFR3)	phosphorylation enrichment (MERTK)	phosphorylation enrichment (Fer (mouse))	phosphorylation enrichment (c-Src)	phosphorylation enrichment (EPHB2)	phosphorylation enrichment (FGFR1)	phosphorylation enrichment (Fes)	phosphorylation enrichment (Fyn)
GGRIDYIAGLV [APRT_Y60_D65V]	0.582	0.382	0.692	0.573	0.562	1.19	0.871	0.568	0.717	0.389	0.715	0.423	0.604	0.496	1.11	0.418
GGSSPYSRRLP [CDK13_Y351]	0.609	0.525	0.709	0.504	0.327	0.549	0.4	0.358	0.39	0.414	0.317	0.393	0.314	0.393	0.501	0.403
GHEYIYVDPMQ [PDGFRA_Y574]	0.633	0.749	0.873	8.98	7.52	5.16	1.83	3.75	11.6	4.29	2.92	3.65	10.2	14.4	0.917	3.2
GIVEDYRPTFF [ACVRL1_Y421_P424T_YF]	0.695	0.447	0.846	0.811	0.578	0.897	0.838	0.416	0.651	0.452	0.468	0.45	0.549	0.592	1.04	0.394
GKANRYFSPNF [PTEN_Y336_D331G]	1.06	0.525	0.967	0.779	0.379	0.622	0.811	0.398	0.685	0.46	0.477	0.528	0.424	0.455	0.612	0.479
GLALRCLSDHS [VWF_Y1584_Y1584C]	0.654	0.41	0.815	0.718	0.592	0.86	0.961	0.59	0.711	0.422	0.518	0.503	0.559	0.551	1.16	0.515
GLALRYLSDHS [VWF_Y1584]	0.557	0.444	0.732	0.501	0.518	0.873	0.898	0.549	0.583	0.38	0.723	0.539	0.471	0.565	0.838	0.465
GLDGSYLLRFS [SH2D1A_Y29_D33Y_YF]	0.937	0.944	0.885	0.644	0.44	0.839	0.843	0.408	0.546	0.414	0.424	0.465	0.518	0.385	0.965	0.435
GLIPAYHRFIM [NMNAT1_Y64_V67F]	1.37	1.44	1.39	0.619	0.521	0.734	1.31	0.494	0.687	0.593	0.418	0.616	0.423	0.553	0.822	0.535
GLIPAYHRVIM [NMNAT1_Y64]	0.856	1.2	1.07	0.662	0.571	0.881	1.16	0.543	0.612	0.408	0.502	0.414	0.504	0.572	0.963	0.558
GLVFLYVEKNQ [PRELP_Y156_M157V]	1.19	0.663	1.12	0.759	0.6	1.22	1.15	0.532	0.902	0.337	0.575	0.479	0.622	0.44	1.29	0.505
GPRKAYELSQR [SETX_Y1297]	0.707	0.422	0.982	0.492	0.343	0.464	0.558	0.389	0.355	0.409	0.381	0.412	0.328	0.422	0.539	0.401
GRDQPYSGTGD [TYRO3_Y828_A831T]	0.49	0.518	1.02	0.673	0.385	0.667	0.713	0.481	0.52	0.492	0.526	0.441	0.43	0.49	0.757	0.549
GRQWNYVASML [KLHL4_Y552_S557L]	1.33	0.945	1.25	0.591	0.405	0.731	0.737	0.418	0.565	0.367	0.366	0.391	0.481	0.382	0.809	0.434
GRQWNYVASMS [KLHL4_Y552]	0.966	0.767	1.04	0.719	0.508	0.799	0.618	0.4	0.539	0.395	0.355	0.371	0.549	0.434	0.754	0.419
GRRNTCYASIA [ACADM_Y352_Y352C]	7.14	3.58	0.972	0.5	0.336	0.557	0.48	0.477	0.432	0.407	0.33	0.495	0.365	0.333	0.644	0.442
GRRNTYYASIA [ACADM_Y352]	0.624	0.999	0.779	0.572	0.35	0.653	0.735	0.56	0.454	0.774	0.414	0.638	0.477	0.45	0.849	0.532

Sequence	SH2 binding enrichment (SHP2-C SH2)	SH2 binding enrichment (c-Src SH2)	SH2 binding enrichment (Grb2 SH2)	phosphorylation enrichment (c-Abl (mouse))	phosphorylation enrichment (EPHB1)	phosphorylation enrichment (AncSZ)	phosphorylation enrichment (Jak2)	phosphorylation enrichment (Hck)	phosphorylation enrichment (FGFR3)	phosphorylation enrichment (MERTK)	phosphorylation enrichment (Fer (mouse))	phosphorylation enrichment (c-Src)	phosphorylation enrichment (EPHB2)	phosphorylation enrichment (FGFR1)	phosphorylation enrichment (Fes)	phosphorylation enrichment (Fyn)
GRVFVYHLSEQ [ITGAE_Y551_R552H_YF]	1.28	0.614	0.769	0.471	0.508	0.986	0.684	0.579	0.626	0.44	0.444	0.629	0.608	0.593	0.893	0.68
GSQERDFELVE [TSC2_Y407_Y407D]	0.612	0.632	0.881	0.69	0.466	1.08	1.07	0.493	0.717	0.484	0.46	0.523	0.492	0.489	1.04	0.522
GVASDYKCIDP [VPS13B_Y1991]	0.524	0.65	0.888	0.496	0.739	1.08	0.703	0.747	0.827	0.365	0.587	0.427	0.589	0.724	1.01	0.548
GVLKEYGVKVL [CPS1_Y529]	0.688	0.408	0.863	0.334	0.369	0.52	0.391	0.431	0.569	0.488	0.362	0.424	0.322	0.384	0.642	0.378
GVTLLCFGRFN [ADGRD1_Y85_Y85C_YF]	0.863	0.465	0.922	0.9	0.732	1.14	1.09	0.587	0.885	0.384	0.498	0.388	0.669	0.524	1.53	0.443
GVTLLYFGRFN [ADGRD1_Y85_YF]	1.41	0.981	1.27	0.817	0.501	1.54	1.32	0.541	0.794	0.389	0.497	0.426	0.676	0.448	1.34	0.562
GYEEAYSVSKK [PAFAH1B1_Y28_F31S]	0.796	1.85	0.798	0.536	0.491	0.893	0.661	0.447	0.607	0.367	0.469	0.601	0.432	0.364	1.01	0.435
GYITSYREEEQ	0.573	0.49	0.646	0.879	0.677	1.29	1.15	0.543	0.711	0.442	0.616	0.463	0.659	0.595	1.37	0.554
GYKVRYATGSI [FGFR1_Y210_W213G]	1.11	1.03	1.1	0.478	0.537	0.499	0.456	0.434	0.423	0.32	0.34	0.398	0.479	0.416	0.625	0.401
HAVYVCDICHV [TWNK_Y508_Y508C]	1.26	1.28	1.18	0.972	1.79	1.1	1.01	0.826	0.904	0.524	0.775	0.916	2.06	0.628	1.42	0.627
HAVYVYDICHV [TWNK_Y508]	0.898	0.867	0.87	1.18	5.08	1.68	1.01	4.08	1.41	5.12	6.45	5.04	6.29	1.59	1.31	7.09
HFPFQCHRQLY [F12_Y53_Y53C]	1.15	1.16	1.21	0.532	0.559	0.689	0.861	0.681	0.564	0.597	0.385	0.422	0.645	0.639	1.05	0.528
HHIDFYKKTTN [FGFR1_Y654_YF]	0.61	0.325	1.05	0.491	0.503	0.855	0.53	0.378	0.457	0.408	0.604	0.489	0.418	0.629	1.19	0.435
HHTDECEYDEL [TGM1_Y134_Y134C]	0.764	0.516	1.21	0.906	0.835	1.8	1.33	0.667	1.03	0.641	0.729	0.894	0.772	0.504	1.75	0.869
HILFRYPKEFQ [IDS_Y234_P231L]	0.791	0.572	0.625	0.744	0.822	1.33	1.59	0.603	0.92	0.573	0.779	1.64	0.797	0.866	1.19	0.63
HLEKKYVHRDS [CSF1R_Y708_R710H]	1.17	0.659	1.26	0.276	0.471	0.615	0.358	0.399	0.678	0.438	0.585	0.34	0.314	0.42	0.612	0.585
